# From IntAct's records for PubMed 27487388
# B1: Microsomal triglyceride transfer protein large subunit (Homo sapiens), P55157 (parent)
# chain: MILLAVLFLCFISSYSASVKGHTTGLSLNNDRLYKLTYSTEVLLDRGKGKLQDSVGYRISSNVDVALLWRNPDGDDDQLIQITMKDVNVENVNQQRGEKSIFKGKSPSKIMGKENLEALQRPTLLHLIHGKVKEFYSYQNEAVAIENIKRGLASLFQTQLSSGTTNEVDISGNCKVTYQAHQDKVIKIKALDSCKIARSGFTTPNQVLGVSSKATSVTTYKIEDSFVIAVLAEETHNFGLNFLQTIKGKIVSKQKLELKTTEAGPRLMSGKQAAAIIKAVDSKYTAIPIVGQVFQSHCKGCPSLSELWRSTRKYLQPDNLSKAEAVRNFLAFIQHLRTAKKEEILQILKMENKEVLPQLVDAVTSAQTSDSLEAILDFLDFKSDSSIILQERFLYACGFASHPNEELLRALISKFKGSIGSSDIRETVMIITGTLVRKLCQNEGCKLKAVVEAKKLILGGLEKAEKKEDTRMYLLALKNALLPEGIPSLLKYAEAGEGPISHLATTALQRYDLPFITDEVKKTLNRIYHQNRKVHEKTVRTAAAAIILNNNPSYMDVKNILLSIGELPQEMNKYMLAIVQDILRFEMPASKIVRRVLKEMVAHNYDRFSRSGSSSAYTGYIERSPRSASTYSLDILYSGSGILRRSNLNIFQYIGKAGLHGSQVVIEAQGLEALIAATPDEGEENLDSYAGMSAILFDVQLRPVTFFNGYSDLMSKMLSASGDPISVVKGLILLIDHSQELQLQSGLKANIEVQGGLAIDISGAMEFSLWYRESKTRVKNRVTVVITTDITVDSSFVKAGLETSTETEAGLEFISTVQFSQYPFLVCMQMDKDEAPFRQFEKKYERLSTGRGYVSQKRKESVLAGCEFPLHQENSEMCKVVFAPQPDSTSSGWF
# B2: Microsomal triglyceride transfer protein large subunit (Homo sapiens), P55157 (parent)
# chain: B1 chain
# partner: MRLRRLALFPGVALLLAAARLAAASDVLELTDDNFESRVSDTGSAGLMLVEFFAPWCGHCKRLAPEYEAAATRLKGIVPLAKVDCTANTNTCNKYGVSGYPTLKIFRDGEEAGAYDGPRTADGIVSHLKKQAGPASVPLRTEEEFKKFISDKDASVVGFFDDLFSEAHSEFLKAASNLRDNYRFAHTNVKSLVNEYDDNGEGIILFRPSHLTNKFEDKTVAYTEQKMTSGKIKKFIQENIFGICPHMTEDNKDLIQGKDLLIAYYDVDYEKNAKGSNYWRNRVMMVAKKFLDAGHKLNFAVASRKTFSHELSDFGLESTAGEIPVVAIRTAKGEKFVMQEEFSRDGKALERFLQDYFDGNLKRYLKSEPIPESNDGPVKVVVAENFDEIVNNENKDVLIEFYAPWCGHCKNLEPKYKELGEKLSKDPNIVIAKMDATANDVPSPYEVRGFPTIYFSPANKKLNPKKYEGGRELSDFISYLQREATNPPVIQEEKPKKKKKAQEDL
# Variants of: B1
# Conditions: with apob_human APOB
row,Variant,effect of a mutation on the interaction
1,D361E,with no effect
2,D361Y,with no effect

# Variants of: B1
# Conditions: with apob_human APOB
# Remark: another data set of the same source
row,Variant,effect of a mutation on the interaction
1,D361E,increasing interaction strength

# Variants of: B2
# Conditions: with pdia3_chlae PDIA3, Q4VIT4
row,Variant,effect of a mutation on the interaction
1,D361Y,disrupting interaction strength

# Variants of: B2
# Conditions: with pdia3_chlae PDIA3, Q4VIT4
# Remark: another data set of the same source
row,Variant,effect of a mutation on the interaction
1,D361Y,decreasing interaction strength
2,D361E,with no effect
